This is an account of results in patent US20180273587A1 (AILERON THERAPEUTICS, published 2018).

Assay [1] deals with T1, BCL-XL (UniProt Q07817 1-209).
T1 construct: Target of the Ki columns
Put plainly: Ki (Table 6); method not stated.

Assay [2] has as its target T2, MCL-1 (UniProt Q07820 172-327, limits assumed).
T2 construct: Target of the Ki columns; also called Myeloid cell leukemia 1
Put plainly: Ki (Table 6); method not stated.

Assay [3] addresses T3, BCL-2 (UniProt P10415 1-217, limits assumed).
T3 construct: Target of the Ki columns
As to the kind of experiment: Ki (Table 6); method not stated.

Assay [4] concerns the target T1, BCL-XL. As to the kind of experiment: Ki; method not stated; unit not printed (nM per Table 6).
The target of assay [5] is T2, MCL-1. The description is as above.
Assay [6] addresses T3, BCL-2. The description is as above.

Starred links: 1 amine or outer side, 2 acyl side, 3 side chain; linkers in the order of their positions; H or OH if unused. Positions of bridges follow the written chain, without caps; N, C: chain ends. Non-standard residues stand in square brackets, D forms with d. St = two pentenyl-alanine olefin side chains, each crosslinked to another residue (stitch), C=CCCCC(CCCC=C)(N[*:1])C(=O)[*:2]; R8 = C=CCCCCCC[C@@](C)(N)C(=O)O; R5 = C=CCCC[C@@](C)(N)C(=O)O; S5 = C=CCCC[C@](C)(N)C(=O)O

T1 sequence (Q07817 1-209): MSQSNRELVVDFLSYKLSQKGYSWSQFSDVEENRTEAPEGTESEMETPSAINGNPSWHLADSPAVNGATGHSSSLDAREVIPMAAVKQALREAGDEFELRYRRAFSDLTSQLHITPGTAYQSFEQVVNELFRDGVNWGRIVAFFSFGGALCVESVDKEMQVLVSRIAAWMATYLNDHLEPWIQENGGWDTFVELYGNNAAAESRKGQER
T2 sequence (Q07820 172-327 limits assumed): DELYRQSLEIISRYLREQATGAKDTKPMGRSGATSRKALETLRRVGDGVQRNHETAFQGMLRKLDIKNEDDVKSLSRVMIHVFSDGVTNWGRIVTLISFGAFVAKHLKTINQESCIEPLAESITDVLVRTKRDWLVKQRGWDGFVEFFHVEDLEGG
T3 sequence (P10415 1-217 limits assumed): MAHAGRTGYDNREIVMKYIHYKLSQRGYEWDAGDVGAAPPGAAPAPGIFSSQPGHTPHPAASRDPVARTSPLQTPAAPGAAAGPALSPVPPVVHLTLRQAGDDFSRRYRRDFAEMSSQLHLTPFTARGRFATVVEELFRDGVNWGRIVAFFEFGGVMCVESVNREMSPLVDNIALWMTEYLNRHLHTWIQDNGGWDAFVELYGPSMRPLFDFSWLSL

B1: Cross-linked peptide #1 (peptide)
peptide: Ac-IWIAQALR[R8]IGDEFN[S5]YYA-NH2
modifications: staple 9-16
SMILES: CC[C@H](C)[C@H](NC(C)=O)C(=O)N[C@@H](Cc1c[nH]c2ccccc12)C(=O)N[C@H](C(=O)N[C@@H](C)C(=O)N[C@@H](CCC(N)=O)C(=O)N[C@@H](C)C(=O)N[C@@H](CC(C)C)C(=O)N[C@@H](CCCNC(=N)N)C(=O)N[C@]1(C)CCCCCCC=CCCC[C@@](C)(C(=O)N[C@@H](Cc2ccc(O)cc2)C(=O)N[C@@H](Cc2ccc(O)cc2)C(=O)N[C@@H](C)C(N)=O)NC(=O)[C@H](CC(N)=O)NC(=O)[C@H](Cc2ccccc2)NC(=O)[C@H](CCC(=O)O)NC(=O)[C@H](CC(=O)O)NC(=O)CNC(=O)[C@H]([C@@H](C)CC)NC1=O)[C@@H](C)CC
In the case of B1, the figures for the Ki with BCL-XL [1], in the assay with MCL-1 [2] and with BCL-2 [3] were 1.4 nM, 1.8 nM and 3.2 nM, respectively.

B2: Cross-linked peptide #4 (peptide)
peptide: Ac-IWIAAALR[R8]IGDQFN[S5]YYA-NH2
modifications: staple 9-16
SMILES: CC[C@H](C)[C@H](NC(C)=O)C(=O)N[C@@H](Cc1c[nH]c2ccccc12)C(=O)N[C@H](C(=O)N[C@@H](C)C(=O)N[C@@H](C)C(=O)N[C@@H](C)C(=O)N[C@@H](CC(C)C)C(=O)N[C@@H](CCCNC(=N)N)C(=O)N[C@]1(C)CCCCCCC=CCCC[C@@](C)(C(=O)N[C@@H](Cc2ccc(O)cc2)C(=O)N[C@@H](Cc2ccc(O)cc2)C(=O)N[C@@H](C)C(N)=O)NC(=O)[C@H](CC(N)=O)NC(=O)[C@H](Cc2ccccc2)NC(=O)[C@H](CCC(N)=O)NC(=O)[C@H](CC(=O)O)NC(=O)CNC(=O)[C@H]([C@@H](C)CC)NC1=O)[C@@H](C)CC
For B2, the inhibition constant Ki (in general, the equilibrium dissociation constant of an inhibitor or competing ligand from its target) came to 4 nM in the assay with BCL-XL [1], 6 nM with MCL-1 [2] and 22 nM with BCL-2 [3].

B3: Cross-linked peptide #2 (peptide)
peptide: Ac-IWIAQALR[R8]IGDQFN[S5]YYA-NH2
modifications: staple 9-16
SMILES: CC[C@H](C)[C@H](NC(C)=O)C(=O)N[C@@H](Cc1c[nH]c2ccccc12)C(=O)N[C@H](C(=O)N[C@@H](C)C(=O)N[C@@H](CCC(N)=O)C(=O)N[C@@H](C)C(=O)N[C@@H](CC(C)C)C(=O)N[C@@H](CCCNC(=N)N)C(=O)N[C@]1(C)CCCCCCC=CCCC[C@@](C)(C(=O)N[C@@H](Cc2ccc(O)cc2)C(=O)N[C@@H](Cc2ccc(O)cc2)C(=O)N[C@@H](C)C(N)=O)NC(=O)[C@H](CC(N)=O)NC(=O)[C@H](Cc2ccccc2)NC(=O)[C@H](CCC(N)=O)NC(=O)[C@H](CC(=O)O)NC(=O)CNC(=O)[C@H]([C@@H](C)CC)NC1=O)[C@@H](C)CC
Turning to B3, the Ki with BCL-XL [1] was found to be 12 nM; with MCL-1 [2], 5.2 nM; with BCL-2 [3], 67 nM.

B4: Cross-linked peptide #3 (peptide)
peptide: Ac-IWIAAALR[R8]IGDEFN[S5]YYA-NH2
modifications: staple 9-16
SMILES: CC[C@H](C)[C@H](NC(C)=O)C(=O)N[C@@H](Cc1c[nH]c2ccccc12)C(=O)N[C@H](C(=O)N[C@@H](C)C(=O)N[C@@H](C)C(=O)N[C@@H](C)C(=O)N[C@@H](CC(C)C)C(=O)N[C@@H](CCCNC(=N)N)C(=O)N[C@]1(C)CCCCCCC=CCCC[C@@](C)(C(=O)N[C@@H](Cc2ccc(O)cc2)C(=O)N[C@@H](Cc2ccc(O)cc2)C(=O)N[C@@H](C)C(N)=O)NC(=O)[C@H](CC(N)=O)NC(=O)[C@H](Cc2ccccc2)NC(=O)[C@H](CCC(=O)O)NC(=O)[C@H](CC(=O)O)NC(=O)CNC(=O)[C@H]([C@@H](C)CC)NC1=O)[C@@H](C)CC
B4: the Ki with BCL-XL [1] amounted to 1 nM; in the assay with MCL-1 [2], 1 nM; with BCL-2 [3], 6 nM.

B5: Cross-linked peptide #6 (peptide)
peptide: IWIAQALXAIGDQFNAYYA
modifications: not fully specified; N-terminal Ac; Cit at residue 8 (column 153); $r8 at residue 9 (column 154) and $ at residue 16 (column 161), crosslinked; C-terminal NH2
For B5, the inhibition constant Ki came to 28.8 nM with BCL-XL [1] and 88.2 nM with BCL-2 [3].

B6: SEQ ID NO: 1764 (peptide)
peptide: Ac-IWIAAALR[R8]IGDAFN[S5]YYH-NH2
modifications: staple 9-16
SMILES: CC[C@H](C)[C@H](NC(C)=O)C(=O)N[C@@H](Cc1c[nH]c2ccccc12)C(=O)N[C@H](C(=O)N[C@@H](C)C(=O)N[C@@H](C)C(=O)N[C@@H](C)C(=O)N[C@@H](CC(C)C)C(=O)N[C@@H](CCCNC(=N)N)C(=O)N[C@]1(C)CCCCCCC=CCCC[C@@](C)(C(=O)N[C@@H](Cc2ccc(O)cc2)C(=O)N[C@@H](Cc2ccc(O)cc2)C(=O)N[C@@H](Cc2c[nH]cn2)C(N)=O)NC(=O)[C@H](CC(N)=O)NC(=O)[C@H](Cc2ccccc2)NC(=O)[C@H](C)NC(=O)[C@H](CC(=O)O)NC(=O)CNC(=O)[C@H]([C@@H](C)CC)NC1=O)[C@@H](C)CC
Take B6: the figures for the Ki in the assay with BCL-XL [4], with MCL-1 [5] and with BCL-2 [6] were 73.8 nM, 10.6 nM and 98.8 nM, respectively.

B7: SEQ ID NO: 1766 (peptide)
peptide: Ac-IWIAAALR[R8]IGDAFN[S5]YYK-NH2
modifications: staple 9-16
SMILES: CC[C@H](C)[C@H](NC(C)=O)C(=O)N[C@@H](Cc1c[nH]c2ccccc12)C(=O)N[C@H](C(=O)N[C@@H](C)C(=O)N[C@@H](C)C(=O)N[C@@H](C)C(=O)N[C@@H](CC(C)C)C(=O)N[C@@H](CCCNC(=N)N)C(=O)N[C@]1(C)CCCCCCC=CCCC[C@@](C)(C(=O)N[C@@H](Cc2ccc(O)cc2)C(=O)N[C@@H](Cc2ccc(O)cc2)C(=O)N[C@@H](CCCCN)C(N)=O)NC(=O)[C@H](CC(N)=O)NC(=O)[C@H](Cc2ccccc2)NC(=O)[C@H](C)NC(=O)[C@H](CC(=O)O)NC(=O)CNC(=O)[C@H]([C@@H](C)CC)NC1=O)[C@@H](C)CC
With B7, the Ki with BCL-XL [4] came out at 66.3 nM; with MCL-1 [5] it was 6.6 nM; in the assay with BCL-2 [6], 43.4 nM.

B8: SEQ ID NO: 1765 (peptide)
peptide: Ac-IWIAAALR[R8]IGDAFN[S5]YYR-NH2
modifications: staple 9-16
SMILES: CC[C@H](C)[C@H](NC(C)=O)C(=O)N[C@@H](Cc1c[nH]c2ccccc12)C(=O)N[C@H](C(=O)N[C@@H](C)C(=O)N[C@@H](C)C(=O)N[C@@H](C)C(=O)N[C@@H](CC(C)C)C(=O)N[C@@H](CCCNC(=N)N)C(=O)N[C@]1(C)CCCCCCC=CCCC[C@@](C)(C(=O)N[C@@H](Cc2ccc(O)cc2)C(=O)N[C@@H](Cc2ccc(O)cc2)C(=O)N[C@@H](CCCNC(=N)N)C(N)=O)NC(=O)[C@H](CC(N)=O)NC(=O)[C@H](Cc2ccccc2)NC(=O)[C@H](C)NC(=O)[C@H](CC(=O)O)NC(=O)CNC(=O)[C@H]([C@@H](C)CC)NC1=O)[C@@H](C)CC
As to B8, the results for the Ki in the assay with BCL-XL [4], with MCL-1 [5] and in the assay with BCL-2 [6] were 186 nM, 18.5 nM and 142 nM, respectively.
Regarding Ac-IWIAQALR[R8]IGDEFN[St]YYA[R5]A-NH2 (staple 16-20, 9-16) [SEQ ID NO: 1784], the Ki with BCL-XL [4] stood at 24.2 nM; with MCL-1 [5], 11.6 nM; with BCL-2 [6], 57.7 nM.
